According to patent publication US20230106247A1 (L AND L BIO CO LTD NINGBO CHINA, published 2023):
Where two headings read alike, the source gives them in different places.

Experiments:
human Sirpα-V2-his = human Sirpα-V2-his (human); assay: blocking ELISA, competitor CD47-his
Procedure: Specifically, the recombinant protein of human Sirpα-V2-his was diluted to a concentration of 2 μg/mL with a PBS buffer at pH7.4, then added into a 96-well ELISA plate (Corning, CLS3590-100EA) at a volume of 50 μL/well, and placed in an incubator at 37° C. for 2 hours. After the liquid was discarded, the wells were added with a blocking solution of 5% skimmed milk (skimmed milk powder available from Bright Dairy) diluted with PBS at 230 μL/well, and incubated in an incubator at 37° C. for 3 hours, or placed overnight at 4° C. (for 16-18 hours) for blocking. […] The plate was washed for 5 times, added with 50 μL/well of a streptavidin-HRP secondary antibody (GenScript, M00091) diluted at 1:1000, incubated at 37° C. for 1 hour, and then washed with PBST for 5 times. Each well was added with 50 μL TMB (Surmodic, Cat #TTMB-1000-01) for color development, and added with 50 μL/well of 1 M H₂SO₄ to stop the reaction. The readings on a microplate reader (MultiskanGO Thermo, Model: 51119200) were subjected to data analysis by GraphPad prism 5.

human Sirpα-V1-his [1] = target: T1, human Sirpα-V1-his (human, UniProt P78324 31-373); assay: blocking ELISA, competitor CD47-hFc
T1 construct: range 31-373; Bought (Sino Biological 11612-H08H) or expressed in-house; also called hSirpα-V1; hSirpα-V1-his
Procedure: The recombinant proteins such as human Sirpα-V1-hFc/Sirpα-V1-his were diluted to concentrations of 5 μg/mL or 2 μg/mL respectively with a PBS buffer at pH 7.4, and then added into a 96-well ELISA plate (Corning, CLS3590-100EA) at a volume of 50 μL/well, and placed in an incubator at 37° C. for 2 hours. After the liquid was discarded, the wells were added with a blocking solution of 5% skimmed milk (skimmed milk powder available from Bright Dairy) diluted with PBS at 230 μL/well, and incubated in an incubator at 37° C. for 3 hours, or placed overnight at 4° C. (for 16-18 hours) for blocking. […] The plate was washed for 5 times, added with 50 μL/well of streptavidin-HRP (GenScript, M00091) or anti-his-HRP secondary antibody (GenScript, A00612) diluted at 1:1000, incubated at 37° C. for 1 hour, and then washed with PBST for 5 times. Each well was added with 50 μL of TMB (Surmodic, Cat #: TTMB-1000-01) for color development, and added with 50 μL/well of 1 M H₂SO₄ to stop the reaction. The readings on a microplate reader (MultiskanGO Thermo, Model 51119200) were subjected to data analysis by GraphPad prism 5.

human Sirpα-V1-his [2] = target: T1, human Sirpα-V1-his; assay: ELISA
Procedure: The self-expressed human PD-1, Sirpα and the like antigens of the present disclosure were diluted with a PBS buffer at pH7.4 to a concentration of 2 μg/mL according to different assays, and then added into a 96-well ELISA plate (Corning, CLS3590-100EA) at a volume of 50 μL/well, and placed in an incubator at 37° C. for 2 hours. After the liquid was discarded, the wells were added with a blocking solution of 5% skimmed milk (Sangon Biotech (Shanghai) Co., Ltd., A600669-0250) diluted with PBS at 200 μL/well, and incubated in an incubator at 37° C. for 3 hours, or placed overnight at 4° C. (for 16-18 hours) for blocking. The blocking solution was discarded, and the plate was washed with a PBST buffer (pH7.4 PBS containing 0.05% tween-20) for 5 times, then added with 50 μL/well of 5-fold serial dilution of the antibody to be tested in 1% BSA, and incubated at 37° C. for 1 hour. […] The plated was washed with PBST for 5 times, then added with 50 μL/well of TMB chromogenic substrate (KPL, 52-00-03), incubated at room temperature for 5-10 min, added with 50 μL/well of 1 M H₂SO₄ to stop the reaction, and read by a […] Go microplate reader (ThermoFisher, 51119200) for the absorbance value at 450 nm, and then EC₅₀ was calculated according to the OD value.
The aforementioned bispecific antibodies were cloned, expressed and purified according to the cloning, expression and purification methods of Example 1 of the present disclosure.

human Sirpα-V1-hFc = target: T2, human Sirpα-V1-hFc (human, UniProt P78324 31-373); assay: blocking ELISA, competitor CD47-his
T2 construct: range 31-373; also called hSirpα (dimer); hSirpα-V1-hFc (dimer); not shown: human IgG1 Fc region at the C-terminus
Procedure: The antigens PD-1 and Sirpα expressed according to the method of Example 1 were diluted with a PBS buffer at pH7.4 to a concentration of 2 μg/mL, added into a 96-well ELISA plate (Corning, CLS3590-100EA) at a volume of 50 μL/well, and incubated at 37° C. for 2 hours. After the liquid was discarded, the wells were added with a blocking solution of 5% skimmed milk (Sangon Biotech (Shanghai) Co., Ltd., A600669-0250) formulated with PBS at 200 μL/well, and incubated at 37° C. for 3 hours for blocking. […] The plate was washed with PBST for 5 times, added with 50 μL/well of HRP-labeled secondary antibody (GenScript Biotechnology Co., Ltd., M00091) diluted at 1:1000, and incubated at 37° C. for 1 hour. The plated was washed with PBST for 5 times, then added with 50 μl/well of TMB chromogenic substrate (KPL, 52-00-03), incubated at room temperature for 5-10 min, added with 50 μl/well of 1 M H₂SO₄ to stop the reaction, and read by a […] Go microplate reader (ThermoFisher, 51119200) for the absorbance value at 450 nm, and then IC₅₀ was calculated according to the OD value.

human Sirpα-V1-his [3] = target: T1, human Sirpα-V1-his; assay: ELISA; remark: listed apart in the source
[4] = target: T3, human T cells (expressing Sirpγ) (human, UniProt Q9P1W8 29-387); assay: flow cytometry on PBMC
T3 construct: whole, on cells; The target as printed is the cell; also called human PBMCs (T cells)

[5] = target: T4, human Sirpα-V1 on CHO-K1 cells (CHO-K1 hSirpα+ cell line) (human, UniProt P78324 31-504); assay: cell ELISA on hSirpα-v1+ cell strain
T4 construct: whole, on cells; also called hSirpα-v1+ cell strain
Excerpt: The readings on a microplate reader (MultiskanGO Thermo, Model 51119200) were subjected to data analysis by GraphPad prism 5.

T3 sequence (Q9P1W8 29-387): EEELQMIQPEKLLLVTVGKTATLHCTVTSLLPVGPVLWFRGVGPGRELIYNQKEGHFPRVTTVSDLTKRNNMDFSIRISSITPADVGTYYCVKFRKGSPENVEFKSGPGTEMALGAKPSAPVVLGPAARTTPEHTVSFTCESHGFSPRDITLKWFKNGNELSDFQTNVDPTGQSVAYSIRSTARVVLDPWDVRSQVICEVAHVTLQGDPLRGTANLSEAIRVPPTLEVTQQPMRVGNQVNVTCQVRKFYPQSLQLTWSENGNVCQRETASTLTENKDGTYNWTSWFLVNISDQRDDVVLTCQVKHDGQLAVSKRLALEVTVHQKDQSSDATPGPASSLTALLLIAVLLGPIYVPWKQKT
Sequence of human Sirpα-V2-his (human) (chain, as listed by the source): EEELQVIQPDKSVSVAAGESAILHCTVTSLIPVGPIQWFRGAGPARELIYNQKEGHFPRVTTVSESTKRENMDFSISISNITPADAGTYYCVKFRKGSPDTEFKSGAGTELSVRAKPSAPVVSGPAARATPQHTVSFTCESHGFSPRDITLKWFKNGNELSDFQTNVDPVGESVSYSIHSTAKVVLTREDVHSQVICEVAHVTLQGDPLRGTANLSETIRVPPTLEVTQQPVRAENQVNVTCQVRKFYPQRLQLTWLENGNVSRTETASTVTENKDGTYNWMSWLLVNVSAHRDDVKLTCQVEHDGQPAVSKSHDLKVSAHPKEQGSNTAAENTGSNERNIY

B1: humanized antibody mab14-h16 (antibody, human IgG4 S228P, kappa, V domains shown)
VH: QVQLVQSGAEVKKPGASVKVSCKASGYNFNIYWINWVRQAPGQGLEWIGNIYPSSISTNYNEKFKTRATLTVDKSTSTVYMELSSLRSEDTAVYYCARSEGTYYGGRYEGDWFGYWGQGTLVTVSS
VL: DIQMTQSPSSLSASVGDRVTITCRASQDIRNYLNWYQQKPGKAPKLLIYFTSTLHSGVPSRFSGSGSGTDFTLTISSLQPEDFATYYCQQGNTLPWTFGGGTKVEIKR
notes: hIgG4, κ
Human Sirpα-V2-his
  IC50: 2.39 nM
Human Sirpα-V1-his [1]
  IC50: 5.28 nM
Human Sirpα-V1-his [2]
  EC50: 0.077 nM
Human Sirpα-V1-hFc
  IC50: 3.88 nM
Human Sirpα-V1-his [3]
  EC50: 0.087 nM
[4]
  binding result: no binding (tested: negative control 1.67%)
[5]
  EC50: 0.124 nM
